# Measurements taken from US7332335.
# B1: recombinant PP5 (protein phosphatase 5) (protein)
# chain: MAMAEGERTECAEPPRDEPPADGALKRAEELKTQANDYFKAKDYENAIKFYSQAIELNPSNAIYYGNRSLAYLRTECYGYALGDATRAIELDKKYIKGYYRRAASNMALGKFRAALRDYETVVKVKPHDKDAKMKYQECNKIVKQKAFERAIAGDEHKRSVVDSLDIESMTIEDEYSGPKLEDGKVTISFMKELMQWYKDQKKLHRKCAYQILVQVKEVLSKLSTLVETTLKETEKITVCGDTHGQFYDLLNIFELNGLPSETNPYIFNGDFVDRGSFSVEVILTLFGFKLLYPDHFHLLRGNHETDNMNQIYGFEGEVKAKYTAQMYELFSEVFEWLPLAQCINGKVLIMHGGLFSEDGVTLDDIRKIERNRQPPDSGPMCDLLWSDPQPQNGRSISKRGVSCQFGPDVTKAFLEENNLDYIIRSHEVKAEGYEVAHGGRCVTVFSAPNYCDQMGNKASYIHLQGSDLRPQFHQFTAVPHPNVKPMAYANTLLQLGMM
# Target: p53, P04637
# Sequence (P04637 whole entry, looked up): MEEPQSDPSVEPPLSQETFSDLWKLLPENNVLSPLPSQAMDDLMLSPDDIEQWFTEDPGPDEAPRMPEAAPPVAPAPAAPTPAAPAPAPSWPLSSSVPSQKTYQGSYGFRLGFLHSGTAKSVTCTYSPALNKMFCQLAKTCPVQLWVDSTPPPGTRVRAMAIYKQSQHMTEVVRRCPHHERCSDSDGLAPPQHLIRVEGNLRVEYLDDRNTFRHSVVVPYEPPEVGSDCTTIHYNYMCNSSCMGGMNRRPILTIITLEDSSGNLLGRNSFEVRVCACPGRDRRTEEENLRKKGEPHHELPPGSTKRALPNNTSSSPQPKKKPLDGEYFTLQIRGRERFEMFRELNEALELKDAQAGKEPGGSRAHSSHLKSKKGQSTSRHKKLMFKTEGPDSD
protein,measurement,value
B1,dephosphorylation of p53 in vitro,recombinant PP5 can dephosphorylate p53 in vitro
